The nature of the data set: self-splicing fitness, log relative to wild type (ln ratio); higher = more splicing; Tetrahymena group I intron in knt gene, E. coli kanamycin selection, DiMSum; sequences stand for … in CUCUCU…GGAGGGAAAAGUUAUCAGGCAUGCACCUGGUAGCUAGUCUUUAAACCAAUAGAUUGCAUCGGUUUAAAAGGCAAGACCGUCAAAUUGCGGGAAAGGGGUCAACAGCCGUUCAGUACCAAGUCUCAGGGGAAACUUUGAGAUGGCCUUGCAAAGGGUAUGGUAAUAAGCUGACGGACAUGGUCCUAACCACGCAGCCAAGUCCUAAGUCAACAGAUCUUCUGUUGAUAUGGAUGCAGUUCACAGACUAAAUGUCGGUCGGGGAAGAUGUAUUCUUCUCAUAAGAUAUAGUCGGACCUCUCCUUAAUGGGAGCUAGCGGAUGAAGUGAUGCAACACUGGAGCCGCUGGGAACUAAUUUGUAUGCGAAAGUAUAUUGAUUAGUUUUGGAGUACUCGUGGUCG
A digest of the protocol: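 Fitness was computed with DiMSum as the error-weighted combination of replicate fold changes, kanamycin versus none, each normalised to wild type. The library randomised all eight intron nucleotides of the P1ex region, with the intron placed in the knt kanamycin-resistance gene on pET-22b(+) in E. coli BL21(DE3). Six replicate transformations were grown overnight at 37°C or 30°C on LB agar with or without 25 μg/mL kanamycin, plus 100 μg/mL carbenicillin, 50 μM IPTG and 0.2% rhamnose. Pooled colonies were amplicon-sequenced on an Illumina HiSeq 2500.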

± gives the uncertainty stated by the source.

The text below walks through data of the supplement of paper PMC7877785.

Turning to CAAUAGCAAUAUUACGGUAA, the “self-splicing fitness (ln)” value by setting is: (30 °C) -2.8 ± 0.14; (37 °C) -2.81 ± 0.18. The matching figures for UGCUAGCAAUAUUACGCGAC: -2.66 ± 0.26 and -1.58 ± 0.3. Consider ACUCAGCAAUAUUACGGGUA, for which the “self-splicing fitness (ln)” value by setting is: (30 °C) -1.57 ± 0.099; (37 °C) -0.922 ± 0.083.

Take GCAUAGCAAUAUUACGUUAC: the “self-splicing fitness (ln)” value runs as follows: (30 °C) -2.15 ± 0.41; (37 °C) -1.85 ± 0.4. As for GGUUAGCAAUAUUACGUUCA, the “self-splicing fitness (ln)” value by setting is: (30 °C) 0.228 ± 0.14; (37 °C) -0.557 ± 0.13. As to UAUCAGCAAUAUUACGUUAU, the “self-splicing fitness (ln)” value (30 °C) was -3.07 ± 0.11 and the “self-splicing fitness (ln)” value (37 °C) is -1.89 ± 0.1. The matching figures for AACGAGCAAUAUUACGGGAA: -2.18 ± 0.22 and -2.74 ± 0.27. In the case of GCGGAGCAAUAUUACGACGA, the “self-splicing fitness (ln)” value is, setting by setting: (30 °C) -0.227 ± 0.16; (37 °C) -0.189 ± 0.14. The like results for GUUGAGCAAUAUUACGAUCU were, in that order, -0.691 ± 0.093 and -1.12 ± 0.11. The matching figures for CCUUAGCAAUAUUACGUACU: -2.32 ± 0.23 and -1.99 ± 0.21. Regarding UUGUAGCAAUAUUACGCAAC, where the note is “30 °C”, the “self-splicing fitness (ln)” value was -2.57 ± 0.41. On the same count and under the same terms, the result for CCGGAGCAAUAUUACGCAAU reads -2.59 ± 0.36. As to GUCCAGCAAUAUUACGCGUC, the “self-splicing fitness (ln)” value reads like this: (30 °C) -1.15 ± 0.088; (37 °C) 0.346 ± 0.12. The like results for UCAAAGCAAUAUUACGAAGU were, in that order, -2.96 ± 0.16 and -2.39 ± 0.24. Take AUCGAGCAAUAUUACGCACA: the “self-splicing fitness (ln)” value was -2.46 ± 0.16 (30 °C) and -0.76 ± 0.11 (37 °C). The like results for AUGGAGCAAUAUUACGUAUU were, in that order, -3.29 ± 0.24 and -2.21 ± 0.16. The like results for UGACAGCAAUAUUACGGGAA were, in that order, -1.33 ± 0.12 and -0.827 ± 0.081. With CGUCAGCAAUAUUACGAGUC, the “self-splicing fitness (ln)” value (37 °C) is -1.18 ± 0.18. On to CGAGAGCAAUAUUACGAAGA, for which the “self-splicing fitness (ln)” value (30 °C) was -3.49 ± 0.36. AAUGAGCAAUAUUACGUGUG: the “self-splicing fitness (ln)” value was -4.35 ± 0.3 (30 °C) and -1.65 ± 0.17 (37 °C).

As to CGGCAGCAAUAUUACGAAAC, the “self-splicing fitness (ln)” value is, setting by setting: (30 °C) -3.19 ± 0.33; (37 °C) -2.93 ± 0.25. The like results for AUAUAGCAAUAUUACGCACG were, in that order, -1.54 ± 0.23 and -0.439 ± 0.21. The like results for GCUUAGCAAUAUUACGAGAG were, in that order, -1.52 ± 0.23 and -0.67 ± 0.2.

For GCCAAGCAAUAUUACGCUAC, the “self-splicing fitness (ln)” value runs as follows: (30 °C) -4.34 ± 0.42; (37 °C) -2.22 ± 0.16. As for UUACAGCAAUAUUACGGUGG, the “self-splicing fitness (ln)” value by setting is: (30 °C) -1.08 ± 0.087; (37 °C) -0.457 ± 0.1. The like results for UAGAAGCAAUAUUACGGUAA were, in that order, -1.64 ± 0.091 and -0.669 ± 0.073. As for UCCAAGCAAUAUUACGGAAG, the “self-splicing fitness (ln)” value is -1.85 ± 0.2 (30 °C) and -1.8 ± 0.24 (37 °C). For CGUAAGCAAUAUUACGCACU, the “self-splicing fitness (ln)” value (30 °C) was -2.27 ± 0.24 and the “self-splicing fitness (ln)” value (37 °C) is -1.6 ± 0.18. With GUUCAGCAAUAUUACGACUU, the “self-splicing fitness (ln)” value was -0.0631 ± 0.073 (30 °C) and -0.409 ± 0.079 (37 °C). Take CCCUAGCAAUAUUACGUCCG: the “self-splicing fitness (ln)” value by setting is: (30 °C) -4.17 ± 0.26; (37 °C) -2.57 ± 0.23.

Take AUCCAGCAAUAUUACGUGGC: the “self-splicing fitness (ln)” value runs as follows: (30 °C) -3.98 ± 0.17; (37 °C) -2.62 ± 0.16. Consider AGUCAGCAAUAUUACGACUU, for which the “self-splicing fitness (ln)” value reads like this: (30 °C) -2.13 ± 0.11; (37 °C) -1.96 ± 0.19. The matching figures for AAGCAGCAAUAUUACGGAAA: -2.74 ± 0.12 and -2.26 ± 0.14. As to UAGUAGCAAUAUUACGGCUU, the “self-splicing fitness (ln)” value is, setting by setting: (30 °C) -0.242 ± 0.11; (37 °C) 0.187 ± 0.13.

Turning to AUUUAGCAAUAUUACGGACG, the “self-splicing fitness (ln)” value (30 °C) is -2.26 ± 0.24 and the “self-splicing fitness (ln)” value (37 °C) was -1.75 ± 0.24. Take UUUAAGCAAUAUUACGGCAC: the “self-splicing fitness (ln)” value is, setting by setting: (30 °C) -2 ± 0.27; (37 °C) -1.87 ± 0.23.

As to AUUCAGCAAUAUUACGCUCU, the “self-splicing fitness (ln)” value by setting is: (30 °C) -0.186 ± 0.094; (37 °C) 0.683 ± 0.12. The matching figures for GAGUAGCAAUAUUACGGUAA: -2.23 ± 0.18 and -1.25 ± 0.16. The like results for UGCAAGCAAUAUUACGGAUG were, in that order, -1.25 ± 0.065 and -0.565 ± 0.078.
